The chains are these.
B1: 1CP-126 (antibody, human IgG1, kappa, V domains shown)
VH: QVQLVQSGAEVKKPGASVKVSCKASGYNFISYWLHWVRQAPGQGLEWMGGIYPGNTDTTYNQKFKGRVTMTADTSTSTAYMELSSLRSEDTAVYYCIRYDYDRGMDYWGQGTLVTVSS
VL: DIQMTQSPSSLSASVGDRVTITCRASEDIYYRLAWYQQKPGKAPKLLISGATALETGVPSRFSGSGSGKDYTFTISSLQPEDIATYYCQHYWNIPWTFGQGTKVEIKR
notes: humanized 3C11, human IgG1 kappa
B2: 1CP-135 (antibody, human IgG1, kappa, V domains shown)
VH: QVQLVQSGAEVKKPGASVKVSCKASGYNFISYWLHWVRQAPGQGLEWMGGIYPGNTDTTYNQKFKGRVTVTAVTSTSTVYMELSSLRSEDTAVYYCIRYDYDRGMDYWGQGTLVTVSS
VL: DIQMTQSPSSLSASVGDRVTITCRASEDIYYRLAWYQQKPGNAPKLLISGATALETGVPSRFSGSGSGKDYTLTISSLQPEDIATYYCQHYWNIPWTFGQGTKVEIKR
notes: as for B1
B3: 1CP-127 (antibody, human IgG1, kappa, V domains shown)
VH: QVQLVQSGAEVKKPGASVKVSCKASGYNFISYWLHWVRQAPGQGLEWMGGIYPGNTDTTYNQKFKGRVTVTAVTSTSTVYMELSSLRSEDTAVYYCIRYDYDRGMDYWGQGTLVTVSS
VL: DIQMTQSPSSLSASVGDRVTITCRASEDIYYRLAWYQQKPGKAPKLLISGATALETGVPSRFSGSGSGKDYTFTISSLQPEDIATYYCQHYWNIPWTFGQGTKVEIKR
notes: as for B1
B4: 1CP-133 (antibody, human IgG1, kappa, V domains shown)
VH: QVQLVQSGAEVKKPGASVKVSCKASGYNFISYWLHWVRQAPGQGLEWMGGIYPGNTDTTYNQKFKGRVTMTADTSTSTVYMELSSLRSEDTAVYYCIRYDYDRGMDYWGQGTLVTVSS
VL: DIQMTQSPSSLSASVGDRVTITCRASEDIYYRLAWYQQKPGNAPKLLISGATALETGVPSRFSGSGSGKDYTLTISSLQPEDIATYYCQHYWNIPWTFGQGTKVEIKR
notes: as for B1
B5: 1CP-132 (antibody, human IgG1, kappa, V domains shown)
VH: QVQLVQSGAEVKKPGASVKVSCKASGYNFISYWLHWVRQAPGQGLEWMGGIYPGNTDTTYNQKFKGRVTMTRDTSTSTVYMELSSLRSEDTAVYYCIRYDYDRGMDYWGQGTLVTVSS
VL: DIQMTQSPSSLSASVGDRVTITCRASEDIYYRLAWYQQKPGNAPKLLISGATALETGVPSRFSGSGSGKDYTLTISSLQPEDIATYYCQHYWNIPWTFGQGTKVEIKR
notes: as for B1
B6: 1CP-131 (antibody, human IgG1, kappa, V domains shown)
VH: QVQLVQSGAEVKKPGASVKVSCKASGYNFISYWLHWVRQAPGQGLEWMGGIYPGNTDTTYNQKFKGRVTVTAVTSTSTVYMELSSLRSEDTAVYYCIRYDYDRGMDYWGQGTLVTVSS
VL: DIQMTQSPSSLSASVGDRVTITCRASEDIYYRLAWYQQKPGKAPKLLISGATALETGVPSRFSGSGSGKDYTLTISSLQPEDIATYYCQHYWNIPWTFGQGTKVEIKR
notes: as for B1
B7: 1CP-134 (antibody, human IgG1, kappa, V domains shown)
VH: QVQLVQSGAEVKKPGASVKVSCKASGYNFISYWLHWVRQAPGQGLEWMGGIYPGNTDTTYNQKFKGRVTMTADTSTSTAYMELSSLRSEDTAVYYCIRYDYDRGMDYWGQGTLVTVSS
VL: DIQMTQSPSSLSASVGDRVTITCRASEDIYYRLAWYQQKPGNAPKLLISGATALETGVPSRFSGSGSGKDYTLTISSLQPEDIATYYCQHYWNIPWTFGQGTKVEIKR
notes: as for B1
B8: 1CP-112 (antibody, human IgG1, kappa, V domains shown)
VH: QVQLVQSGSELKKPGASVKVSCKASGYTLTDFSMHWVRQAPGQGLEWMGWINTETGAPTYADDFKGRFVFSLDTSVSTAYLQISSLKAEDTAVYYCSRGRDYDPHFDYWGQGTLVTVSS
VL: EIVLTQSPATLSLSPGERATLSCRASQSISDFLHWYQQKPGQAPRLLIKYASQSISGIPARFSGSGPGSDFTLTISSVEPEDFAVYYCQSAHSFPYTFGQGTKLEIKR
notes: humanized 8E5, human IgG1 kappa
B9: 1CP-118 (antibody, human IgG1, kappa, V domains shown)
VH: QVQLVQSGSELKKPGESVKVSCKASGYTLTDFSMHWVRQAPGQGLEWMGWINTETGAPTYADDFKGRFVLSLDTSVSTAYLQISSLKSEDTAVYYCSRGRDYDPHFDYWGQGTLVTVSS
VL: EIVLTQSPATLSLSPGERATLSCRASQSISDFLHWYQQKPGQSPRLLIKYASQSISGIPARFSGSGSGSDFTLTISSVEPEDFAVYYCQSAHSFPYTFGQGTKLEIKR
notes: as for B8
B10: 1CP-122 (antibody, human IgG1, kappa, V domains shown)
VH: QVQLVQSGSELKKPGESVKVSCKASGYTLTDFSMHWVRQAPGQGLEWMGWINTETGAPTYADDFKGRFVLSLDTSVSTAYLQISSLKSEDTAVYYCSRGRDYDPHFDYWGQGTLVTVSS
VL: EIVLTQSPATLSLSPGERATLSCRASQSISDFLHWYQQKSGQSPRLLIKYASQSISGIPARFSGSGSGSDFTLTISSVEPEDFAVYYCQSAHSFPYTFGQGTKLEIKR
notes: as for B8
B11: 1CP-113 (antibody, human IgG1, kappa, V domains shown)
VH: QVQLVQSGSELKKPGASVKVSCKASGYTLTDFSMHWVRQAPGQGLEWMGWINTETGAPTYADDFKGRFVLSLDTSVSTAYLQISSLKAEDTAVYYCSRGRDYDPHFDYWGQGTLVTVSS
VL: EIVLTQSPATLSLSPGERATLSCRASQSISDFLHWYQQKPGQAPRLLIKYASQSISGIPARFSGSGPGSDFTLTISSVEPEDFAVYYCQSAHSFPYTFGQGTKLEIKR
notes: as for B8
B12: 1CP-114 (antibody, human IgG1, kappa, V domains shown)
VH: QVQLVQSGSELKKPGESVKVSCKASGYTLTDFSMHWVRQAPGQGLEWMGWINTETGAPTYADDFKGRFVLSLDTSVSTAYLQISSLKSEDTAVYYCSRGRDYDPHFDYWGQGTLVTVSS
VL: EIVLTQSPATLSLSPGERATLSCRASQSISDFLHWYQQKPGQAPRLLIKYASQSISGIPARFSGSGPGSDFTLTISSVEPEDFAVYYCQSAHSFPYTFGQGTKLEIKR
notes: as for B8
B13: 1CP-116 (antibody, human IgG1, kappa, V domains shown)
VH: QVQLVQSGSELKKPGASVKVSCKASGYTLTDFSMHWVRQAPGQGLEWMGWINTETGAPTYADDFKGRFVFSLDTSVSTAYLQISSLKAEDTAVYYCSRGRDYDPHFDYWGQGTLVTVSS
VL: EIVLTQSPATLSLSPGERATLSCRASQSISDFLHWYQQKPGQSPRLLIKYASQSISGIPARFSGSGSGSDFTLTISSVEPEDFAVYYCQSAHSFPYTFGQGTKLEIKR
notes: as for B8
B14: 1CP-119 (antibody, human IgG1, kappa, V domains shown)
VH: QVQLQQSGSELKKPGESVKLSCKASGYTLTDFSMHWVRQAPGQGLKWMGWINTETGAPTYADDFKGRFVFSLDTSVSMAYLQISSLKSEDTAVYYCSRGRDYDPHFDYWGQGTLVTVSS
VL: EIVLTQSPATLSLSPGERATLSCRASQSISDFLHWYQQKPGQSPRLLIKYASQSISGIPARFSGSGSGSDFTLTISSVEPEDFAVYYCQSAHSFPYTFGQGTKLEIKR
notes: as for B8
B15: 1CP-120 (antibody, human IgG1, kappa, V domains shown)
VH: QVQLVQSGSELKKPGASVKVSCKASGYTLTDFSMHWVRQAPGQGLEWMGWINTETGAPTYADDFKGRFVFSLDTSVSTAYLQISSLKAEDTAVYYCSRGRDYDPHFDYWGQGTLVTVSS
VL: EIVLTQSPATLSLSPGERATLSCRASQSISDFLHWYQQKSGQSPRLLIKYASQSISGIPARFSGSGSGSDFTLTISSVEPEDFAVYYCQSAHSFPYTFGQGTKLEIKR
notes: as for B8
B16: 1CP-123 (antibody, human IgG1, kappa, V domains shown)
VH: QVQLQQSGSELKKPGESVKLSCKASGYTLTDFSMHWVRQAPGQGLKWMGWINTETGAPTYADDFKGRFVFSLDTSVSMAYLQISSLKSEDTAVYYCSRGRDYDPHFDYWGQGTLVTVSS
VL: EIVLTQSPATLSLSPGERATLSCRASQSISDFLHWYQQKSGQSPRLLIKYASQSISGIPARFSGSGSGSDFTLTISSVEPEDFAVYYCQSAHSFPYTFGQGTKLEIKR
notes: as for B8

Where only a bound is given, the exact number is not on record here.

This assay deals with T1, HuCDCP1-C (human, UniProt Q9H5V8 30-667).
T1 construct: range 30-667; expressed in HEK-293T, purified by Fc/his tag; also called human CDCP1-C; full-length extracellular domain of human CDCP1; not shown: Fc or his tag
T1 sequence (looked up): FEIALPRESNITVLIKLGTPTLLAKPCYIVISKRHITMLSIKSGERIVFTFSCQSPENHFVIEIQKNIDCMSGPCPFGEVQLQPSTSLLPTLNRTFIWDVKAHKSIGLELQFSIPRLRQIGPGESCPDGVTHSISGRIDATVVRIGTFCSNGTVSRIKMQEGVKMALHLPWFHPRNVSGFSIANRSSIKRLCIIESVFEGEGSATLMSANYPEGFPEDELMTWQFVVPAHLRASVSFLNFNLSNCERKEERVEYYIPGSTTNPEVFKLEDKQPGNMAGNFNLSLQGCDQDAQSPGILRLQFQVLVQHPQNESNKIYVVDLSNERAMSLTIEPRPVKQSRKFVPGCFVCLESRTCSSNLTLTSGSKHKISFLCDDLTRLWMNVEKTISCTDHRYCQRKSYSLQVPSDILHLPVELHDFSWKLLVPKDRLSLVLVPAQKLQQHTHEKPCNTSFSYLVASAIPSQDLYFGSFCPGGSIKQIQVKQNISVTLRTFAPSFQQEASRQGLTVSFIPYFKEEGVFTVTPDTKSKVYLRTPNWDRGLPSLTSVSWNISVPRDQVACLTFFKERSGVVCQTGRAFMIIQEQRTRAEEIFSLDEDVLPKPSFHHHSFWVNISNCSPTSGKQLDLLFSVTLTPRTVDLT
In words: SPR (Caterra), antigen immobilized. The procedure:
The humanized anti-CDCP1 antibodies obtained from Example 11 were subjected to gene cloning, constructed into pTT5 expression vector for a small amount of expression in CHO cells (Expi-CHOS: Gibco A29127), and purified with an Fc affinity column (AT Protein A Diamond Plus. No. AA402312). Antibody purity was analyzed by HPLC and determined by Nanodrop. High-throughput affinity assay was carried out for a small amount of antibodies by Caterra.
B1: binding was characterised by a dissociation constant (Kd) of 6.78 nM, the koff was found to be 0.00143 s⁻¹ and the kon was 211000 M⁻¹ s⁻¹.
The corresponding values for B2 are 4.8 nM, 0.0012 s⁻¹ and 249000 M⁻¹ s⁻¹.
The corresponding values for B3 are 9.66 nM, 0.00198 s⁻¹ and 205000 M⁻¹ s⁻¹.
B4 gave a Kd of at most 0.0546 nM, a koff of at most 1e-05 s⁻¹ and a kon of 183000 M⁻¹ s⁻¹.
In the same order, the values of B5 are at most 0.0713 nM, at most 1e-05 s⁻¹ and 140000 M⁻¹ s⁻¹.
For the molecule B6, the Kd turned out to be 10.5 nM, the koff is 0.002 s⁻¹ and the kon stood at 191000 M⁻¹ s⁻¹.
In the same order, the values of B7 are 10.5 nM, 0.00202 s⁻¹ and 193000 M⁻¹ s⁻¹.
The corresponding values for B8 are 0.368 nM, 5e-05 s⁻¹ and 136000 M⁻¹ s⁻¹.
In the same order, the values of B9 are 13.4 nM, 0.00225 s⁻¹ and 168000 M⁻¹ s⁻¹.
In the case of B10, the dissociation constant Kd came to 12.5 nM, the off-rate (koff) is 0.00209 s⁻¹ and the kon was found to be 167000 M⁻¹ s⁻¹.
The corresponding values for B11 are 0.411 nM, 5.9e-05 s⁻¹ and 143000 M⁻¹ s⁻¹.
The corresponding values for B12 are 15.2 nM, 0.00246 s⁻¹ and 161000 M⁻¹ s⁻¹.
With B13, the affinity, expressed as Kd, was 0.359 nM; the koff worked out at 4.59e-05 s⁻¹; the kon worked out at 128000 M⁻¹ s⁻¹.
B14 registered a Kd of 5.51 nM, a koff of 0.00124 s⁻¹ and a kon of 226000 M⁻¹ s⁻¹.
Regarding B15, binding was put at a Kd of 0.122 nM, the koff is 1.7e-05 s⁻¹ and the kon amounted to 139000 M⁻¹ s⁻¹.
Regarding B16, binding was characterised by a dissociation constant (Kd) of 11.4 nM, the off-rate (koff) was determined as 0.00227 s⁻¹ and the kon turned out to be 199000 M⁻¹ s⁻¹.

Source of the values: US20260250410A1 (SICHUAN HUIYU PHARMACEUTICAL, published 2026).
